Source: patent US5969094A, “Anti-paramyxovirus screening method and vaccine” (Emory University, priority 1996, dated 1999)
Like-named read-outs stand apart in the source and are kept apart here.

Tests used:
PI3F + PI3HN = PI3F + PI3HN (Human parainfluenza 3 virus, UniProt P06828)
PI3 virus [1] = type: cell-based, human parainfluenza type 3 virus; conditions: for syncytium formation / inhibition of cell fusion in PI3 infected HeLa-T4 cells (in words): incubated with peptide, concentration not given; for inhibition of PI3 virus-induced cell fusion: 24 h post infection
PI3 virus [2] = experiment: Inhibition of plaque formation on Vero cells (viral entry), PI3; type: cell-based, human parainfluenza type 3 virus; conditions: 100 μM peptide with virus 1 h at 37° C.; 10^5 dilution of the PI3 virus stock; overlay without peptide
Protocol: Inhibition of plaque formation. A series of 2-fold dilutions of F peptides together with appropriately diluted PI2 or PI3 virus were added to monolayers of Vero cells. After 1 h incubation at 37° C., the inoculum was removed and overlaid with 2% white agar mixed at 1:1 ratio with 2XDMEM containing 2% FBS. Three days after overlying, red agar mixed at a 1:1 ratio with 2XDMEM containing 2% FBS was overlaid to stain the cells. Plaque numbers were counted one day after neutral red staining and recorded. The Reed-Muench method of estimating 50% endpoint [Welkos, S. et al., (1994) Methods in Enzymology. 235:29-39] was used to calculate the F peptide 50% effective concentration (EC50) value.
F peptides inhibit viral spread. To determine whether the F peptide interferes with the viral entry process, a plaque assay was performed by inoculating cells with virus and peptide together at 37° C. for 1 h, and then overlaying with agar without the addition of peptide. At 10^4 dilution of the PI2 virus stock, 80 μM of the 2F1B34 peptide (SEQ ID NO:21) caused an 80% reduction in number of plaques. Similarly, at 10^5 dilution of the PI3 virus stock, 100 μM of the 3F1B35 peptide (SEQ ID NO:23) caused a 70% reduction in number of plaques. Furthermore, the reduction in the number of viral plaques was correlated with increasing concentration of peptide incubated with the virus. […]

PI2 virus [3] = type: cell-based, parainfluenza virus type 2
PI2 virus [4] = experiment: Inhibition of virus production (released virus titer) in HeLa-T4 cells, PI2; type: cell-based, parainfluenza virus type 2; conditions: compared with 2F1B34
PI2F + PI2HN = target: T1, PI2F + PI2HN (Human parainfluenza 2 virus, UniProt P25467); type: cell-based, parainfluenza virus type 2
T1 construct: expressed in transfected cells; host or cells: HeLa-T4 cells infected with vTF7.3
T1 sequence (P25467 107-551 limits assumed): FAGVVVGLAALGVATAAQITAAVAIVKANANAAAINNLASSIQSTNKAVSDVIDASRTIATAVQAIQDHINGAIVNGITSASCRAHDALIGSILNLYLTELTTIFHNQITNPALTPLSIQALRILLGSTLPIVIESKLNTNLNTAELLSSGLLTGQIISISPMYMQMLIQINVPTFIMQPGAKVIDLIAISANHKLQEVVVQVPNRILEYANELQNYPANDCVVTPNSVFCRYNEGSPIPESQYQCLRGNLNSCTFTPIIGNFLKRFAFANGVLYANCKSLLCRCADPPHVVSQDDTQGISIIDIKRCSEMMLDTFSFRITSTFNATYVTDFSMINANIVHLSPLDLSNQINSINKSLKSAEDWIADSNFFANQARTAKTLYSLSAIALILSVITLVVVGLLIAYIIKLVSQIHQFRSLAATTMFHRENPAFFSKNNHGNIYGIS
T1 sequence (P25467 24-106 partner limits assumed): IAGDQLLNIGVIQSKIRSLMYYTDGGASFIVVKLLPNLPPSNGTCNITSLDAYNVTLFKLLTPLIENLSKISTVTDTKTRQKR

[5] = target: PI2 F plus PI2 HN (viral glycoproteins of PI2 virus; HN:F) (parainfluenza type 2 (PI2) virus)
[6] = target: PI2 F plus PI2 HN (viral glycoproteins of PI2 virus; HN:F) (parainfluenza type 2 (PI2) virus); remark: listed apart in the source
[7] = target: PI2 F plus PI2 HN (viral glycoproteins of PI2 virus; HN:F) (parainfluenza type 2 (PI2) virus); remark: listed apart in the source
SN-F = target: T2, SN-F (Sendai virus, UniProt P04855); type: cell-based
T2 sequence (P04855 117-565 limits assumed): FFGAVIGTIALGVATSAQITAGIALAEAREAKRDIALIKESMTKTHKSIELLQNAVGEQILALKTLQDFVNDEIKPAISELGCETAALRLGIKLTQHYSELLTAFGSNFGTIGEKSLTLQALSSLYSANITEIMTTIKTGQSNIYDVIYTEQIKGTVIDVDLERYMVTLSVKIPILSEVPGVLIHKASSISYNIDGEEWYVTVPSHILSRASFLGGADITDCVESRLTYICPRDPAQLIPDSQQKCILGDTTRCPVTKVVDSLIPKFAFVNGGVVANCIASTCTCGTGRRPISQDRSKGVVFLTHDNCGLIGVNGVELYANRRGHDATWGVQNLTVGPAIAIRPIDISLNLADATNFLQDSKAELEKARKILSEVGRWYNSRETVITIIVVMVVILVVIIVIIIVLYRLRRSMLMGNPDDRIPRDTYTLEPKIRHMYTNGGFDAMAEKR
T2 sequence (P04855 26-116 partner limits assumed): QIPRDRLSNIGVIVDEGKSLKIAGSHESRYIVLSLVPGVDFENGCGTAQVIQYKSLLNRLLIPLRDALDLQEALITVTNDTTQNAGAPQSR

[8] = target: T3, SN-F, fusion glycoprotein of Sendai virus (Sendai virus (SN), UniProt P04855); experiment: cell-based or functional assay
T3 sequence: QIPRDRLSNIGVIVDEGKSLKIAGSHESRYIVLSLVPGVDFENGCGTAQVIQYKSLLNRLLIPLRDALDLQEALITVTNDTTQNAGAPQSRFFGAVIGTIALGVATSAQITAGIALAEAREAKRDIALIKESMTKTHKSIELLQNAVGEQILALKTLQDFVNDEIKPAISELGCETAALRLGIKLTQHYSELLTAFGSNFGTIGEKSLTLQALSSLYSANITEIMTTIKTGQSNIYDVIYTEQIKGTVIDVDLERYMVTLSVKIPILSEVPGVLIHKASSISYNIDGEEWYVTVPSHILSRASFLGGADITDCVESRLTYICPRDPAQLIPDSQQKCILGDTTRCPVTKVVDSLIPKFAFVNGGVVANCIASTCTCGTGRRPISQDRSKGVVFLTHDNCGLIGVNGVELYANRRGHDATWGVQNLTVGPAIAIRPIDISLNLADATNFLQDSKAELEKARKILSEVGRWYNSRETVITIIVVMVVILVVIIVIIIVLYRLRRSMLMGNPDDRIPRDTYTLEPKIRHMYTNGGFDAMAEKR

guinea pig erythrocytes = type: cell-based
HeLa-T4 cells = type: cell-based
[9] = target: PI3 F plus PI3 HN (viral glycoproteins of PI3 virus; HN:F) (parainfluenza type 3 (PI3) virus, UniProt P06828); experiment: cell-based or functional assay

**Q.** For “3F1B24: 24 a.a. PI3F peptide corresponding to the heptad repeat B only (ELNKAKSDLEESKEWIRRSNQKLD)”, which “inhibition of cell fusion by vaccinia-expressed PI3 F and HN (in words)” value (PI3F + PI3HN) is on record?
**A.** Its value is “only partially inhibited cell fusion”.

**Q.** And the “inhibition of PI3 cell fusion at high peptide concentration” value (PI3 virus [1])?
**A.** The value was “could only partially inhibit cell fusion”.

**Q.** And the “syncytium formation / inhibition of cell fusion in PI3 infected HeLa-T4 cells (in words)” value (PI3 virus [1])?
**A.** Its value is “dramatically decreased”.

**Q.** And the “inhibition of PI3 virus-induced cell fusion” value (PI3 virus [1]; peptide 200 μM or more)?
**A.** Its value is “partially inhibited”.

**Q.** What does the source list for “3F1B35: 35 a.a. PI3F peptide from the beginning of the transmembrane domain to include the entire heptad repeat B (ELNKAKSDLEESKEWIRRSNQKLDSIGNWHQSSTT)”?
**A.** inhibition of fusion by PI3 F plus PI3 HN (PI3F + PI3HN): can inhibit; syncytium formation / inhibition of cell fusion in PI3 infected HeLa-T4 cells (in words) (PI3 virus [1]): no syncytia were seen; inhibition of PI3 virus-induced cell fusion (PI3 virus [1]; peptide 100 μM): completely inhibited; reduction in number of plaques, PI3 (PI3 virus [2]): 70%

**Q.** Which “inhibition of PI2 cell fusion at high peptide concentration” value (PI2 virus [3]) does the source give for “2F1B21: 21 a.a. PI2F peptide from the beginning of the transmembrane domain to a predicted glycosylation site in the heptad repeat B region (KSAEDWIADSNFFANQARTAK)” here?
**A.** The value was “could only partially inhibit cell fusion”.

**Q.** What about the “syncytium formation / inhibition of cell fusion in PI2 infected HeLa-T4 cells (in words)” value (PI2 virus [3]; incubated with peptide, concentration not given) of the same molecule?
**A.** Its value is “dramatically decreased”.

**Q.** And the “inhibition of PI2 virus-induced cell fusion” value (PI2 virus [3]; peptide 200 μM or more, 24 h post infection, m.o.i. 0.1)?
**A.** The value was “cell fusion was reduced remarkably”.

**Q.** And the “effect on multiple cycle growth, PI2 (in words)” value (PI2 virus [4])?
**A.** The value was “not as dramatic as”.

**Q.** And the “inhibition of cell fusion by vaccinia-expressed PI2 F and HN (in words)” value (PI2F + PI2HN)?
**A.** Its value is “only partially inhibited cell fusion”.

**Q.** Which plaque size (peptide in the agar overlay after virus absorption, Vero cells) [5] does the source give for Ac-DLSNQINSINKSLKSAEDWIADSNFFANQARTAK-NH2 [peptide 2F1B34] here?
**A.** Its plaque size (peptide in the agar overlay after virus absorption, Vero cells) is 1.5 mm.

**Q.** What about the viral titer in the culture supernatant 48 h post infection (plaque assay) (fold decrease) [6] of the same molecule?
**A.** Its viral titer in the culture supernatant 48 h post infection (plaque assay) (fold decrease) is 15.

**Q.** And the 50% effective concentration (EC50) of inhibition of virus infection efficiency, plaque assay, Reed-Muench method [7]?
**A.** Its 50% effective concentration (EC50) of inhibition of virus infection efficiency, plaque assay, Reed-Muench method is 53.8 µM.

B1: SN(80-140)d chimeric HN protein (other)
chain: MEYWKHTNHGKDAGNELETSMATHGNKITNKITYILWTIILVLLSIVFIIVLINSIKSEKAHESLLQDVNNEFMSREVKESLTSLIRQEVIARAVNIQSSVQTGIPVLLNKNSRDVIQMIDKSCSRQELTQHCESRITHDVGIKPLNPDDFWRCTSGLPSLMKTPKIRLMPGPGLLAMPTTVDGCVRTPSLVINDLIYAYTSNLITRGCQDIGKSYQVLQIGIITVNSDLVPDLNPRISHTFNINDNRKSCSLALLNTDVYQLCSTPKVDERSDYASSGIEDIVLDIVNHDGSISTTRFKNNNISFDQPYAALYPSVGPGIYYKGKIIFLGYGGLEHPINENAICNTTGCPGKTQRDCNQASHSPWFSDRRMVNSIIVVDKGLNSIPKLKVWTISMRQNYWGSEGRLLLLGNKIYIYTRSTSWHSKLQLGIIDITDYSDIRIKWTWHNVLSRPGNNECPWGHSCPDGCITGVYTDAYPLNPTGSIVSSVILDSQKSRVNPVITYSTSTERVNELAIRNKTLSAGYTTTSCITHYNKGYCFHIVEINHKSLDTFQPMLFKTEIPKSCS
**Q.** How did the “Relative fusion promoting activity b/a” value (SN-F) turn out when B1 was run?
**A.** Its value is 0.09.

**Q.** What about the “fusion promoting activity, percentage of wild type SN-HN” value (SN-F) of the same molecule?
**A.** Its value is 6.7%.

**Q.** What about the “Fusion activity (%), β-galactosidase production in the fusion dependent reporter gene activation assay” value [8] of the same molecule?
**A.** The value was 6.72 % of SN-HN wt with SN-F.

**Q.** And the “HAD activity as percentage of wild type SN-HN hemadsorption” value (guinea pig erythrocytes)?
**A.** The value was 30.5%.

**Q.** What about the “hemadsorption observed under the microscope” value (guinea pig erythrocytes) of the same molecule?
**A.** Its value is “lower activities”.

**Q.** What about the “Cell surface expression (%)” value (HeLa-T4 cells) of the same molecule?
**A.** Its value is 72.0%.

B2: SN(59-140)d chimeric HN protein (other)
chain: MEYWKHTNHGKDAGNELETSMATHGNKITNKITYILWTIILVLLSIVFIIVLISARQGYSMKEYSMTVEALNMSSREVKESLTSLIRQEVIARAVNIQSSVQTGIPVLLNKNSRDVIQMIDKSCSRQELTQHCESRITHDVGIKPLNPDDFWRCTSGLPSLMKTPKIRLMPGPGLLAMPTTVDGCVRTPSLVINDLIYAYTSNLITRGCQDIGKSYQVLQIGIITVNSDLVPDLNPRISHTFNINDNRKSCSLALLNTDVYQLCSTPKVDERSDYASSGIEDIVLDIVNHDGSISTTRFKNNNISFDQPYAALYPSVGPGIYYKGKIIFLGYGGLEHPINENAICNTTGCPGKTQRDCNQASHSPWFSDRRMVNSIIVVDKGLNSIPKLKVWTISMRQNYWGSEGRLLLLGNKIYIYTRSTSWHSKLQLGIIDITDYSDIRIKWTWHNVLSRPGNNECPWGHSCPDGCITGVYTDAYPLNPTGSIVSSVILDSQKSRVNPVITYSTSTERVNELAIRNKTLSAGYTTTSCITHYNKGYCFHIVEINHKSLDTFQPMLFKTEIPKSCS
**Q.** How did the “Relative fusion promoting activity b/a” value (SN-F) turn out when B2 was run?
**A.** The value was 0.51.

**Q.** What about the “Fusion activity (%), β-galactosidase production in the fusion dependent reporter gene activation assay” value [8] of the same molecule?
**A.** The value was 31.3 % of SN-HN wt with SN-F.

**Q.** What about the “HAD activity as percentage of wild type SN-HN hemadsorption” value (guinea pig erythrocytes) of the same molecule?
**A.** Its value is “comparable or higher HAD activity than that of SN-HN”.

**Q.** And the “hemadsorption observed under the microscope” value (guinea pig erythrocytes)?
**A.** Its value is “high levels of hemadsorption”.

**Q.** And the “Cell surface expression (%)” value (HeLa-T4 cells)?
**A.** Its value is 61.6%.

**Q.** Which results are given for Ac-ELNKAKSDLEESKEWIRRSNQKLDSIGNWHQSSTT-NH2 [peptide 3F1B35]?
**A.** 50% effective concentration (EC50) of inhibition of virus infection efficiency, plaque assay, Reed-Muench method [9]: 81.6 µM; viral titer in the culture supernatant post infection [9]: 10 fold reduction
